Experimental data: patent JP2021136920A

B1: 新規モノクローナル抗体PB−1 (antibody, V domains shown)
VH: EVRLQQSGPELVKPGTSVKISCKASGYSFTGYYMHWVKQSPVKSLEWIGRIIPYNGATSYNQNFKDKASLTVDKSSRTAYMDLHSLTSEDSAVYYCARSRYYGRAPYYFDYWGQGTTLTVSS
VL: DVVVTQTPLSLPVSLGDQASISCRSSQSIVHSNGNTYLEWYLQKPGQSPKLLIYKVSNRFSGVPDRISGSGSGTDFTLKISRVEAGDLGVYSCFQGSHVPFTFGSGTKLEIK
B2: 新規モノクローナル抗体SJ−5 (antibody, V domains shown)
VH: EVMLVESGGRLVKPGGSLKLSCAASGFTFSSYGMSWVRQTPEKRLEWVATISGGGSYTYYPDSVKGRFTISRDNVKNNLYLQMSSLRSEDTALYYCARRGAYGDYGWFAYWGQGTLVTVSA
VL: DIVLTQSPATLSVTPGDSVSLSCRASQSINNNLHWYQQKSHESPRLLIKCASQSISGIPSRFSGSGSGTDFTLSINSVETEDFGMYFCQQSNSWPLTFGAGTKLELK

Columns and labels:
[1] = target: A−peakを架橋させたBSA(A−peak−BSA) (bovine) (UniProt P02769); assay: SPR, Biacore T200; A-peak-BSA amine-coupled on CM5 (72 RU), antibody 0.1953-50 nM, 1:1 binding model
[2] = target: Glycer−AGEs由来新規構造体修飾―ウシ血清アルブミン(GAL13−BSA) (bovine) (UniProt P02769); assay: SPR, Biacore T200; GAL13-BSA amine-coupled on CM5
[3] = target: グリセルアルデヒド由来AGEs含有ウシ血清アルブミン(Glycer−AGEs−BSA) (bovine) (UniProt P02769); assay: SPR, Biacore T200; Glycer-AGEs-BSA amine-coupled on CM5, antibody 0-400 nM

Binder	Kd [1] [nM]	Kd [2] [nM]	Kd [3] [nM]
B1	4.15	–	–
B2	–	87.5	57.4
